According to article PMC6191154:

These substances were tested against labelled Vip3Aa protoxin (MST) (Bacillus thuringiensis (strain Bt9816C)) (assay: MST; 10 nM labelled Vip3Aa kept constant, Sf-SR-C protein fragments titrated 0.3 nM to 10 μM, 20 min at RT; 25 mM Hepes pH 7.5, 150 mM NaCl, 0.05% Tween-20; 25 °C; fitted to the Hill equation; three independent experiments).
Work on “Sf-CCP (CCP domain of Sf-SR-C (aa 20-80) with a His-tag) (domain or fragment)” yielded a Kd of 2190 nM.
Work on “GST-SR-F-2 (Sf-SR-C aa 139-320, the MAM domain) (domain or fragment)” yielded a Kd of 463 nM.
Substance “extracellular sequence of Sf-SR-C (aa 20-558) with a glutathione-S-transferase tag (GST-SR-C-N) (domain or fragment)” has a Kd of 190 nM.
